Experiment: yeast display, Sf9 membrane polyspecificity reagent, FACS + sequencing; frameworks hold sequencing errors
How it was run: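 Nanobodies came from a synthetic yeast display library in Saccharomyces cerevisiae BJ5465, induced with galactose for 36–48 hours and stained for 1 hour at 4 °C with 10% biotinylated, detergent-solubilized Sf9 membrane reagent. Cells were enriched on streptavidin microbeads and then FACS-sorted, with low and high (top ~1%) gates set on anti-HA fluorescence for expression and streptavidin fluorescence for reagent binding. Each polyreactivity label reflects the gate a clone came from. Genes were amplified by colony PCR, sequenced by MiSeq 2 × 250 and filtered by CDR length.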

| Sequence | polyreactivity (PSR sort gate) |
| --- | --- |
| QVQLVESGGGLVQAGGSLRLSCAASGYTFTVYPMGGYRPAPGKERELVAAIRDGSSTNYADSVKGRFTISRDNAKNTVYLQMISLKPEDTAVYYCNAYSQSWNFYGDGDYWGQGTQVTVSS | low polyreactivity |
| QVQLVESGGGLVQAGGSLRLSCAASGYTFVLNAMGWYRQAPGKEREMVAAINLDSGNTNYADSVKGRFTISRDNAKNTVYLQMNSLKPEDTAVYYCNTDVKFGGTAYDYWGQGTQVNVSS | low polyreactivity |
| QVQLVESGGGLVQAGGSLRLSCAASGYTFVNYAMGWYRQAPGKEREFVAAISRSGGSTYYADSVKGRFTISRDNAKNTVYLQMNSLKPEDSAVYYCALRGYPPYKYYYWGQGTQVTVSS | high polyreactivity |
| QVQLVESGGGLVQAGGSLRLSCAASGYTFVRYAMGWYRQAPGKERELVAAISRSGGSTYYADSVKGRFTISRDNAKNTVYLQMNSLKPEDTAVYYCNAYPYSYYDYDYWGQGTQVTVSS | high polyreactivity |
| QVQLVESGGGLVQAGGSLRLSCAASGYTFWQYAMGWYRQAPGKERELVAAISGSGGRTYYADSVKGRFTISRDNAKNPVYLQMHSLKPEDTAVYYCAVGYRTPYLSRGGYWGQGTQVTVSS | high polyreactivity |
| QVQLVESGGGLVQAGGSLRLSCAASGYTFYANAMGWYRQAPGTEREFVASITWSGGSTYYADSVKGRFTISRDNAKNTVYLQMNSLKPEDTAVYYCAAESWFKYDYWGQGTQVTVSS | low polyreactivity |
| QVQLVESGGGLVQAGGSLRLSCAASGYTFYEYAMGWYRQAPGKERELGAAIRGSGGGTYYADSVKGRFTISRDNAKNTVYLQMNSLKPEDTAVYYCAVKYAYPYAGVSAIRYYYWGQGTQVTVSS | low polyreactivity |
| QVQLVESGGGLVQAGGSLRLSCAASGYTFYFYAMGWSRQAPGKEREFVAAIRSSGGRTYYADSVKGRFTISRDNAKNTVYLQMNSLKPVDTAVYYCAAAGYYYSVDGAGPRYDYWGQGTQVTVSS | low polyreactivity |
| QVQLVESGGGLVQAGGSLRLSCAASGYTFYKYAMGWYRQAPGKEREFVADITQSGGSTYYADSVKGRFTISRDNAKNTVYLEMNSLKPEDTAVYYCNAAYSYRPDPKGYDYWGQGTQVTVSS | low polyreactivity |
| QVQLVESGGGLVQAGGSLRLSCAASGYTFYPYAMGWYRQAPGKERELVAAISGGASTYYADSVKGRFTISRDNAKNTVYLHMNSLKPEDTAVYYCAVSVYTYVVWYVAATYDYWGQGTQVTVSS | low polyreactivity |
| QVQLVESGGGLVQAGGSLRLSCAASGYTFYRYAMGWYRQAPGKERELVATISRGGSTDYADSVKGRFTISRDNAKNTVYLQMNSLKPEDTAVYYCAARAFSRLTTFYYWGQGTQVTVSS | high polyreactivity |
| QVQLVESGGGLVQAGGSLRLSCAASGYTFYSNAMGWYRQAPGKERELVAVISRGGGTYYADSVKGRFTISRDNAKNTVYLQMNSLKPEDTAVYYCARRIGHGSRPYWLETWRYPYEYWGQGTQVTVSS | low polyreactivity |
| QVQLVESGGGLVQAGGSLRLSCAASGYTFYVYAMGWYRQAPGKERELVAAISSDTGRTYYADSVKGRFTISRDNAKNTVYLQMNSLKPEDTAVYYCAKRRVYGGYDYWGQGTQVTVSS | low polyreactivity |
| QVQLVESGGGLVQAGGSLRLSCAASGYTFYWNVMGWYRQAPGKERELVAVIDWSGGSTHYADSVKGRFTISRDNAKNTVYLQMNSLKPEDTAVYYCAAESVYTWYYQDDDDYWGQGTQVTVSS | low polyreactivity |
| QVQLVESGGGLVQAGGSLRLSCAASGYTIESYGMGWYRQAPGKDREMVAAIDWSGGSTYYADSVKGRFTISRDNAKNTVYLQMNSLIPEDTAVYYCNRDSAGPGDVILAYTGNDYWGQGTQVTVSS | low polyreactivity |
| QVQLVESGGGLVQAGGSLRLSCAASGYTIRANAMGWYRQAPGKERELVAAISRSGGSTYYADSVKGRFTISRDNAKNTVYLQMNSLKPEDTAVYYCNTRQQYQFNYWGQGTQVTVSS | high polyreactivity |
| QVQLVESGGGLVQAGGSLRLSCAASGYTISRYAMGWYIQAHGKERQLVAAISSRGGSTYYADSVKGRFTISRDNAKNTVYLQMNSLNPEDTADYYWAEDYGVGYGIVGSYYWGQGTQVTVSS | high polyreactivity |
| QVQLVESGGGLVQAGGSLRLSCAASGYTITQNAMGWYRQAPGKERELVASITSGGSTDYADSVKGRFTISRDNAKNTVYLQMNSLKPEDTAVYYCAAGTATDVASIGATKDYDYWGQGTQVTVSS | low polyreactivity |
| QVQLVESGGGLVQAGGSLRLSCAASGYTIYYYAMGWYRQAPGKERELVAVITSRGPRTYYADSVKGRFTISRDNAKNTVYLQMNSLKPEDTAVYYCNKARGVAYDWGQGTQVTVSS | high polyreactivity |
| QVQLVESGGGLVQAGGSLRLSCAASGYTLGPYAMGWYRQAPGKERELVATISSAGNTNYADSVKGRFTISRDNAKNTVYLQMNSLKPEDTAVYYCAAAIWYGFGGASGGTYYYWGQGTQVTVSS | high polyreactivity |
| QVQLVESGGGLVQAGGSLRLSCAASGYTLNTYAMGWYRQAPGKERELVAAITWSGGRTYYADSVKGRFTISRDNAKNTVYLQMNSLKPEDTAVYYCNAVWRRSTGDSGYWGQGTQVTVSS | high polyreactivity |
| QVQLVESGGGLVQAGGSLRLSCAASGYTRFYAMGWYRHAPGKERELVAAISSSGGTTYYADSVKGRLTISRDNAKNTVYLQMNSLKPDDSAVYYCAKYVSYCRTLYEYWGQGTQVTVSS | high polyreactivity |

| Sequence | polyreactivity (PSR sort gate) |
| --- | --- |
| QVQLVESGGGLVQAGGSLRLSCAASGYTSNMGWYRQAPGKERELVAAITSGGDGTYYADSVKGRFTISRDNAKNTVYLQMNSLKPEDTAVYYCAKRGRDYNYGRAGYYWGQGTQVTVSS | low polyreactivity |
| QVQLVESGGGLVQAGGSLRLSCAASGYTYRWYAMGWYRQAPGKEREMVAAINRNGGSTFYADSVKGRFTISRDNAKNSVYLQMNSLKPEDTAVYFCAARYSSLPRYLTDGLDYWGQGTQVTVSS | high polyreactivity |
| QVQLVESGGGLVQAGGSLRLSCAASHANAIGWYRQAPGKERELVAAITYRGGSTYYADSVKGRFTISRDNAKNTVYLQMNSLKPEDTAVYYCNTDVYLYVYDFGYNYWGQGTQVTVSS | low polyreactivity |
| QVQLVESGGGLVQAGGSLRLSCAASLRIFYSNAMGWSRQAPGKERELVAAISSSGGITYYADSVKGRFTISRDNAKNTVYLQMNSLKPEDTAVYYCAVDSRHYIRAFDHWGQGTQVTVSS | low polyreactivity |
| QVQLVESGGGLVQAGGSLRLSCAASLSIFYVNAMGWYRQAPGKESELVAAISFSGGTTYYADSVKGRFTISRDNAKNTVYLQMNSLKPEDTAVYYCNTPSSREMDYWGQGTQVTVSS | low polyreactivity |
| QVQLVESGGGLVQAGGSLRLSCAASMGWYRQAPGKERELVAAITTRTGTTYYADSVKGRFTISRDNAKNTVYLQMNSLKPEDTAVYYCSKRGYYRYYYWGQGTQVTVSS | high polyreactivity |
| QVQLVESGGGLVQAGGSLRLSCAASPNIFHTYGMGWYRQAPWKERELVAAITSDGGTYYADSVKGRFTISRDNAKNTVYLQMNSLNPEDSAVYYCAAYTYYYAIHAYWGQGSQVTVSS | low polyreactivity |
| QVQLVESGGGLVQAGGSLRLSCAASRIFRGYAMGWYRQAPGKERELVAAIRRGGSTNYADSVKGRFTISRDNAKNTVYLQMNCLKPEVTAVYYCNAYLYLPRYDYWGQGTQVTVSS | high polyreactivity |
| QVQLVESGGGLVQAGGSLRLSCAASRITLNRNAMGWYRQAPGKERELVARISRRGGTTYYADSVKGRFTISRDNENNTVYLQMNSLKPEDTAVYYFNAGPYGGNPFDYWGQGPQVTVSS | high polyreactivity |
| QVQLVESGGGLVQAGGSLRLSCAASRITSYGYAMGWYRQAPGKERELVAAISRSGGTTYYADSVKGRFTISRDNAKNTVYVQMNILKPEDTAVYYCAVGKSHRGGGVTKFNYWGQGTQVTVSS | low polyreactivity |
| QVQLVESGGGLVQAGGSLRLSCAASRLIFRGNDMGWYRQAPGKERELLAGINSSGSTNYADSVKGRFTISRDNAKNTVYLHMNSLKPEDTAVYYCAARAIVSFDYWGQGTQVTVSS | low polyreactivity |
| QVQLVESGGGLVQAGGSLRLSCAASRLTFNTYTIGWYRQAPGKERELVAGRSKSGGRTYYADSVKGRFTISRDNAKITVYLQMNILKAEDTSVYYCSTRSTTDFYWGHGTQVTVSS | high polyreactivity |
| QVQLVESGGGLVQAGGSLRLSCAASRRIFASNAMGWNSQAPGKERELVAAITSSGGSTYYADSVKGRFTISLDNAKNTVYLQMNSLKPEDTAVYYCNAGDYYYRLVTAKPSSYDYWGQGTQVTVSS | high polyreactivity |
| QVQLVESGGGLVQAGGSLRLSCAASRRIFSRYAMGWYRQAPGKERELVAAITGRGGSTYYADSVKGRFTISRDNAKNTVYLQMNSLKPEDTAVYYCAADVPPRRNFVKYYYWGQGTQVTVSS | high polyreactivity |
| QVQLVESGGGLVQAGGSLRLSCAASRRTFIANAMGWYRQAPGNGREWVAVITLNGGSTYYADSVKRRFTLSRDNAKNTVYLQMNSLKPEDTAVYYCAADVYWDYYWGQGTQVTVSS | low polyreactivity |
| QVQLVESGGGLVQAGGSLRLSCAASRRTFYYAMGWYRQAPWKERYADSVKGRFTISRDNAKNTVYLQMNSLKPVDTAVYYCAAKVPEPPSLDESDYWGQGTQVTVSS | low polyreactivity |
| QVQLVESGGGLVQAGGSLRLSCAASRRTYKYNAMGWYRQAPGKEREVVAAISRSGGSTYYADSVKGRFTISRDNAKNTVYLQMNILKPEDTAVYDCAVSYRPGGYRRHFRYVYWGQGTQVTVSS | high polyreactivity |
| QVQLVESGGGLVQAGGSLRLSCAASRSIFGIYTMGWSRQEPGKERELVAAIKSGGSTNYADSVKGRFTITRDNAKNTVYLQMNSKKPEDTAVYYCNAYIHPPGPRVYSREYDYWGQGTQVTVSS | low polyreactivity |
| QVQLVESGGGLVQAGGSLRLSCAASRSIFQSYDMGWYRQAPGKERELVAAISWSGSTTYYADSVKGRFTISRDNAKNTVYLQMNSLKPEDTAVYYCAFDSNTPDWWAVIYGYWGQGTQVTVSS | low polyreactivity |
| QVQLVESGGGLVQAGGSLRLSCAASRSIFVRNAMGWYRPAPGKERELVAAITSDVNTYYADSVKGRFTISRDNAKNTVYLQMNSLKPEDTAVYYCAKGVTSQPNDPAPFPRYEYWGQGTQVTVSS | low polyreactivity |
| QVQLVESGGGLVQAGGSLRLSCAASRSTFRDNAMGWYRQAPGKVRELVAGITRGGITNYADSVKGRYTISRDNAKNTVYLQMNSLKPEDTEVYYFAAEVTGTYYDYDYWGQGTQVTVSS | low polyreactivity |

From the nanobody polyreactivity screen of Harvey et al. (2022)
